Data as given in publication PMC4904194, “Crystal structure of tyrosine decarboxylase and identification of key residues involved in conformational swing and substrate binding” (Scientific Reports, 2016).

Assays:
[1] = target: the molecule itself; experiment: crystal structure; LbTDC/PLP complex at a molar ratio of 1:4, 0.1 M sodium cacodylate trihydrate pH 7.0, 0.1 M MgCl2, 16% PEG 4000; space group P21
[2] = target: the molecule itself; experiment: crystal structure; apo-LbTDC, sitting-drop vapor diffusion at 18 °C, 0.1 M sodium cacodylate trihydrate pH 7.5, 0.2 M MgCl2, 18% PEG 1000; space group P21

Row | Protein | stoichiometry N [1] | stoichiometry N [2]
1 | Lactobacillus brevis tyrosine decarboxylase in complex with PLP, holo form (enzyme, Lactobacillus brevis CGMCC 1.2028, PLP covalently attached to the ε-amino group of K392 (internal aldimine, Schiff base), Tyrosine decarboxylase (TDC, EC 4.1.1.25) of Lactobacillus brevis CGMCC 1.2028; domains in the structure span residues 7-618; also called holo-LbTDC; LbTDC/PLP complex; source: E. coli BL21(DE3) harboring pET24a-tdc, purified (Ni2+-agarose column); crystallized with PLP at a molar ratio of 1:4) MEKSNRSLKDLDLNALFIGDKAENGQLYKDLLNKLVDEHLGWRKNYIPSDPNMIGPEDQNSPAFKKTVGHMKTVLDQLSERIRTESVPWHSAGRYWGHMNSETLMPALLAYNYAMLWNGNNVAYESSPATSQMEEEVGQEFARLMGYDYGWGHIVADGSLANLEGLWYARNIKSLPFAMKEVNPELVAGKSDWELLNMPTKEIMDLLENAGSQIDEVKKRSARSGKNLQRLGKWLVPQTKHYSWMKAADIIGIGLDQVVPVPIDSNYRMDIQALESIIRKYAAEKTPILGVVGVAGSTEEGAVDGIDKIVALRQKLQKEGIYFYLHVDAAYGGYARALFLDEDDQFIPYKNLQKVHAENHVFTEDKEYIKPEVYAAYKAFDQAESITIDPHKMGYVPYSAGGIVIQDIRMRDTISYFATYVFEKGADIPALLGAYILEGSKAGATAASVWAAHHTLPLNVTGYGKLEGASIEGAHRYYDFLKNLKFEVAGKRISVHPLISPDFNMVDYVLKEDGNDDLIEMNRLNHAFYEQASYVKGSLYGKEYIVSHTDFAIPDYGDSPLAFVESLGFSEVEWRHAGKVTIIRASVMTPYMNQRENFDYFAPRIKKAIQADLEKVYASVNQKENV | 2 | –
2 | Lactobacillus brevis tyrosine decarboxylase, apo form (without PLP) (enzyme, Lactobacillus brevis CGMCC 1.2028, Tyrosine decarboxylase (TDC, EC 4.1.1.25) of Lactobacillus brevis CGMCC 1.2028; domains in the structure span residues 7-618; A selenomethionine form was used only for phasing; also called apo-LbTDC; LbTDC; source: E. coli BL21(DE3) harboring pET24a-tdc, purified (Ni2+-agarose column)) MEKSNRSLKDLDLNALFIGDKAENGQLYKDLLNKLVDEHLGWRKNYIPSDPNMIGPEDQNSPAFKKTVGHMKTVLDQLSERIRTESVPWHSAGRYWGHMNSETLMPALLAYNYAMLWNGNNVAYESSPATSQMEEEVGQEFARLMGYDYGWGHIVADGSLANLEGLWYARNIKSLPFAMKEVNPELVAGKSDWELLNMPTKEIMDLLENAGSQIDEVKKRSARSGKNLQRLGKWLVPQTKHYSWMKAADIIGIGLDQVVPVPIDSNYRMDIQALESIIRKYAAEKTPILGVVGVAGSTEEGAVDGIDKIVALRQKLQKEGIYFYLHVDAAYGGYARALFLDEDDQFIPYKNLQKVHAENHVFTEDKEYIKPEVYAAYKAFDQAESITIDPHKMGYVPYSAGGIVIQDIRMRDTISYFATYVFEKGADIPALLGAYILEGSKAGATAASVWAAHHTLPLNVTGYGKLEGASIEGAHRYYDFLKNLKFEVAGKRISVHPLISPDFNMVDYVLKEDGNDDLIEMNRLNHAFYEQASYVKGSLYGKEYIVSHTDFAIPDYGDSPLAFVESLGFSEVEWRHAGKVTIIRASVMTPYMNQRENFDYFAPRIKKAIQADLEKVYASVNQKENV | – | 2
